# Results taken from PMC12702776 (2025).
# Assays:
# [1] = target: T1, RAC1^WT (Ras-related C3 botulinum toxin substrate 1, wild type), purified (human, UniProt P63000 1-192); experiment: mdGDP-bound RAC1
# RAC1^T17N, purified [2] = target: T2, RAC1^T17N, purified (human, UniProt P63000 1-192, T17N); experiment: mdGDP-bound RAC1
# RAC1^F28L, purified [3] = target: T3, RAC1^F28L, purified (human, UniProt P63000 1-192, F28L); experiment: mdGDP-bound RAC1
# [4] = target: T1, RAC1^WT (Ras-related C3 botulinum toxin …); experiment: mGppNHp-bound RAC1
# RAC1^T17N, purified [5] = target: T2, RAC1^T17N, purified; experiment: mGppNHp-bound RAC1
# RAC1^P29S, purified = RAC1^P29S, purified (human, UniProt P63000 1-192, P29S); experiment: mGppNHp-bound RAC1
# RAC1^F28L, purified [6] = target: T3, RAC1^F28L, purified; experiment: mGppNHp-bound RAC1
Binder,koff [1],"koff (RAC1^T17N, purified [2])","koff (RAC1^F28L, purified [3])",koff [4],"koff (RAC1^T17N, purified [5])","koff (RAC1^P29S, purified)","koff (RAC1^F28L, purified [6])"
"GST-GDI1 (guanosine dissociation inhibitor 1, full-length) (natural protein) MAEQEPTAEQLAQIAAENEEDEHSVNYKPPAQKSIQEIQELDKDDESLRKYKEALLGRVAVSADPNVPNVVVTGLTLVCSSAPGPLELDLTGDLESFKKQSFVLKEGVEYRIKISFRVNREIVSGMKYIQHTYRKGVKIDKTDYMVGSYGPRAEEYEFLTPVEEAPKGMLARGSYSIKSRFTDDDKTDHLSWEWNLTIKKDWKD",0.693 s⁻¹,0.038 s⁻¹,1.03 s⁻¹,–,–,–,–
His-IQGAP1 C794 (C-terminal 794 amino acids of IQ motif-containing GTPase-activating protein 1) (domain or fragment) PPMVVVRKFVHLLDQSDQDFQEELDLMKMREEVITLIRSNQQLENDLNLMDIKIGLLVKNKITLQDVVSHSKKLTKKNKEQLSDMMMINKQKGGLKALSKEKREKLEAYQHLFYLLQTNPTYLAKLIFQMPQNKSTKFMDSVIFTLYNYASNQREEYLLLRLFKTALQEEIKSKVDQIQEIVTGNPTVIKMVVSFNRGARGQNALRQILAPVVKEIMDDKSLNIKTDPVDIYKSWVNQMESQTGEASKLPYDVTPEQALAHEEVKTRLDSSIRNMRAVTDKFLSAIVSSVDKIPYGMRFIAKVLKDSLHEKFPDAGEDELLKIIGNLLYYRYMNPAIVAPDAFDIIDLSAGGQLTTDQRRNLGSIAKMLQHAASNKMFLGDNAHLSIINEYLSQSYQKFRRFFQTACDVPELQDKFNVDEYSDLVTLTKPVIYISIGEIINTHTLLLDHQDAIAPEHNDPIHELLDDLGEVPTIESLIGESSGNLNDPNKEALAKTEVSLTLTNKFDVPGDENAEMDARTILLNTKRLIVDVIRFQPGETLTEILETPATSEQEAEHQRAMQRRAIRDAKTPDKMKKSKSVKEDSNLTLQEKKEKIQTGLKKLTELGTVDPKNKYQELINDIARDIRNQRRYRQRRKAELVKLQQTYAALNSKATFYGEQVDYYKSYIKTCLDNLASKGKVSKKPREMKGKKSKKISLKYTAARLHEKGVLLEIEDLQVNQFKNVIFEISPTEEVGDFEVKAKFMGVQMETFMLHYQDLLQLQYEGVAVMKLFDRAKVNVNLLIFLLNKKFYGK,–,–,–,0.404 s⁻¹,0.0142 s⁻¹,0.138 s⁻¹,0.206 s⁻¹
